Experimental findings from article PMC3894216 (PLoS Pathogens, 2014) are described below.

This series concerns the molecule itself. Description: SDS-stable oligomer band of the purified protein.

B1: GST-CNF1 N-terminal fragment (aa 1-342) (domain or fragment)
chain: MGNQWQQKYLLEYNELVSNFPSPERVVSDYIKNCFKTDLPWFSRIDPDNAYFICFSQNRSNSRSYTGWDHLGKYKTEVLTLTQAALINIGYRFDVFDDANSSTGIYKTKSADVFNEENEEKMLPSEYLHFLQKCDFAGVYGKTLSDYWSKYYDKFKLLLKNYYISSALYLYKNGELDEREYNFSMNALNRSDNISLLFFDIYGYYASDIFVAKNNDKVMLFIPGAKKPFLFKKNIADLRLTLKELIKDSDKQQLLSQHFSLYSRQDGVSYAGVNSVLHAIENDGNFNESYFLYSNKTLSNKDVFDAIAISVKKRSFSDGDIVIKSNSEAQRDYALTILQTIL
What is called stoichiometry N is a count of units in the complex or per binding partner. As to B1, the “stoichiometry N” value is 4.
